Values quoted from earlier work in PMC4160827.
pKd: −log10 of the molar value.

Molecular target: HIF-1α CODD (Homo sapiens) (UniProt Q16665)

pKd: 4.85
Substance: PHD2 (from UniProt Q9GZT9)
